This note sets out measurements from patent US20230357429A1 (JANUX THERAPEUTICS, published 2023).

To fix the notation:
T1: Peptide-76 (cysteine pairing not given here; also: biotinylated, site not given here)
T1 construct: mask peptide for the CD3 scFv
T1 peptide: YLCGPDADETLACY

T2: Peptide-77 (cysteine pairing not given here; also: biotinylated, site not given here)
T2 construct: mask peptide for the CD3 scFv
T2 peptide: YLCGPDTDETLACY

T3: Peptide-70 (cysteine pairing not given here; also: biotinylated, site not given here)
T3 construct: mask peptide for the CD3 scFv
T3 peptide: YLCGPDGDETLACY

T4: Human TROP2 ECD (31-274 AA), biotinylated (human, UniProt P09758 31-274, biotinylated (site not stated))
T4 construct: also called TROP2-biotin; Trop2-biotin
T4 sequence: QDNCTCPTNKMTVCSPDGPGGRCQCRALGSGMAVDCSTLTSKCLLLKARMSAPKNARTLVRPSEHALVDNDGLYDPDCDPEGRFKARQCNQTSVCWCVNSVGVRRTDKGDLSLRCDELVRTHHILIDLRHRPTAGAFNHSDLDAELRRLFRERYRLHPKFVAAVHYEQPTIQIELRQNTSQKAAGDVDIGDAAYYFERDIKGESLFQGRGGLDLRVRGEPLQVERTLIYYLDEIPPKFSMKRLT

B1: Peptide-73 (peptide)
peptide: VYCGPEFDESVGCA
modifications: cysteine pairing not given here; also: biotinylated, site not given here
notes: mask peptide for the CD3 scFv
B2: TCE-39 (anti-CD3 scFv P41S, A49G, N87S, L150F, T151S, G163R, P175A, K181T, T200V, A202D, L208I, G211N, L217I, S218T, V220A, P222A, E223D, A226S, E227D; … (bispecific antibody)
light: DIQLTQSPSSLSASVGDRVSITCKASQDVSIAVAWYQQKPGKAPKLLIYSASYRYTGVPDRFSGSGSGTDFTLTISSLQPEDFAVYYCQQHYITPLTFGAGTKVEIKRTVAAPSVFIFPPSDEQLKSGTASVVCLLNNFYPREAKVQWKVDNALQSGNSQESVTEQDSKDSTYSLSSTLTLSKADYEKHKVYACEVTHQGLSSPVTKSFNRGEC
heavy: EVQLVESGGGLVQPGGSLKLSCAASGFTFNKYAMNWVRQASGKGLEWVGRIRSKYNNYATYYADSVKDRFTISRDDSKNTAYLQMNSLKTEDTAVYYCVRHGNFGNSYISYWAYWGQGTLVTVSSGGGGSGGGGSGGGGSQTVVTQEPSFSVSPGGTVTLTCRSSTGAVTSGNYANWVQQTPGQAPRGLIGGTKFLAPGVPDRFSGSILGNKAALTITGAQADDESDYYCVLWYSNRWVFGGGTKLTVLGGGGSQVQLQQSGSELKKPGASVKVSCKASGYTFTNYGMNWVKQAPGQGLKWMGWINTYTGEPTYTDDFKGRFAFSLDTSVSTAYLQISSLKADDTAVYFCARGGFGSSYWYADVWGQGSLVTVSSASTKGPSVFPLAPSSKSTSGGTAALGCLVKDYFPEPVTVSWNSGALTSGVHTFPAVLQSSGLYSLSSVVTVPSSSLGTQTYICNVNHKPSNTKVDKKVEPKSC
notes: scFv on the Fab heavy chain

Where two headings read alike, the source gives them in different places. Where no end group is shown, it is not given here.

In assay [1] the target is T5, TCE-14 (anti-CD3 scFv F104A; anti-TROP2 wt).
T5 construct: scFv on the Fab heavy chain; also called TCE-14 (F104A)
Nature of the assay: competition ELISA, TCE on captured CD3.

In assay [2] the target is T6, TCE-11 (anti-CD3 scFv H101A; anti-TROP2 wt).
T6 construct: scFv on the Fab heavy chain; also called TCE-11 (H101A)
Nature of the assay: competition ELISA, TCE on captured CD3.

Assay [3] concerns the target T7, TCE-13 (anti-CD3 scFv N103A; anti-TROP2 wt).
T7 construct: scFv on the Fab heavy chain; also called TCE-13 (N103A)
Briefly: competition ELISA, TCE on captured CD3. For orientation: ELISA stands for enzyme-linked immunosorbent assay.

The target in assay [4] is T8, TCE-20 (anti-CD3 scFv S110A; anti-TROP2 wt).
T8 construct: scFv on the Fab heavy chain; also called TCE-20 (S110A)
Nature of the assay: competition ELISA, TCE on captured CD3; Table 40 peptide panel (FIGS. 91-102), limit >100 µM.

Assay [5] has as its target T9, TCE-10 (anti-CD3 scFv R100A; anti-TROP2 wt).
T9 construct: scFv on the Fab heavy chain; also called TCE-10 (R100A)
The assay is described as above.

In assay [6] the target is T10, TCE-31 (anti-CD3 scFv W238A; anti-TROP2 wt).
T10 construct: scFv on the Fab heavy chain; also called TCE-31 (W238A)
Briefly: competition ELISA, TCE on captured CD3; Table 41 run, peptide series with ceiling >100 µM.

The target of assay [7] is T11, TCE-22 (anti-CD3 scFv W112A; anti-TROP2 wt).
T11 construct: scFv on the Fab heavy chain; also called TCE-22 (W112A)
The assay is described as above.

Assay [8] deals with T12, TCE-33 (anti-CD3 scFv F240A; anti-TROP2 wt).
T12 construct: scFv on the Fab heavy chain; also called TCE-33 (F240A)
Nature of the assay: competition ELISA, TCE on captured CD3.

Assay [9] concerns the target T8, TCE-20 (anti-CD3 scFv S110A; anti-TROP2 …). Briefly: competition ELISA (IC50 above limit); Table 42 Peptide-73 series (FIGS. 103A-103C), limit >3 µM.
Assay [10] concerns the target T9, TCE-10 (anti-CD3 scFv R100A; anti-TROP2 …). The description is as above.
Assay [11] deals with T8, TCE-20 (anti-CD3 scFv S110A; anti-TROP2 …). Briefly: competition ELISA, TCE on captured CD3.
In assay [12] the target is T13, TCE-32 (anti-CD3 scFv V239A; anti-TROP2 wt).
T13 construct: scFv on the Fab heavy chain
Briefly: competition ELISA, TCE on captured CD3.

The target of assay [13] is T14, TCE-29 (anti-CD3 scFv N236A; anti-TROP2 wt).
T14 construct: scFv on the Fab heavy chain
Briefly: competition ELISA, TCE on captured CD3.

Assay [14] deals with T5, TCE-14 (anti-CD3 scFv F104A; anti-TROP2 …). Nature of the assay: competition ELISA, TCE on captured CD3. The source holds these as a separate data set.
For assay [15], the target named is T15, TCE-17 (anti-CD3 scFv S107A; anti-TROP2 wt).
T15 construct: scFv on the Fab heavy chain
Briefly: competition ELISA, TCE on captured CD3.

The target of assay [16] is T6, TCE-11 (anti-CD3 scFv H101A; anti-TROP2 …). Briefly: competition ELISA, TCE on captured CD3. This is another data set of the same source.
Assay [17] addresses T16, TCE-12 (anti-CD3 scFv G102A; anti-TROP2 wt).
T16 construct: scFv on the Fab heavy chain
Nature of the assay: competition ELISA, TCE on captured CD3.

For assay [18], the target named is T17, TCE-15 (anti-CD3 scFv G105A; anti-TROP2 wt).
T17 construct: scFv on the Fab heavy chain
Nature of the assay: competition ELISA, TCE on captured CD3.

Assay [19] deals with T18, TCE-18 (anti-CD3 scFv Y108A; anti-TROP2 wt).
T18 construct: scFv on the Fab heavy chain
Briefly: competition ELISA, TCE on captured CD3.

The target in assay [20] is T19, TCE-9 (anti-CD3 scFv V99A; anti-TROP2 wt).
T19 construct: scFv on the Fab heavy chain
Nature of the assay: competition ELISA, TCE on captured CD3.

Assay [21] addresses T7, TCE-13 (anti-CD3 scFv N103A; anti-TROP2 …). Nature of the assay: competition ELISA, TCE on captured CD3. This is another data set of the same source.
The target of assay [22] is T20, TCE-24 (anti-CD3 scFv V231A; anti-TROP2 wt).
T20 construct: scFv on the Fab heavy chain
Briefly: competition ELISA, TCE on captured CD3.

The target of assay [23] is T21, TCE-30 (anti-CD3 scFv R237A; anti-TROP2 wt).
T21 construct: scFv on the Fab heavy chain
Briefly: competition ELISA, TCE on captured CD3.

The target in assay [24] is T22, TCE-16 (anti-CD3 scFv N106A; anti-TROP2 wt).
T22 construct: scFv on the Fab heavy chain
Briefly: competition ELISA, TCE on captured CD3.

Assay [25] concerns the target T23, TCE-28 (anti-CD3 scFv S235A; anti-TROP2 wt).
T23 construct: scFv on the Fab heavy chain
Nature of the assay: competition ELISA, TCE on captured CD3.

Assay [26] addresses T24, TCE-27 (anti-CD3 scFv Y234A; anti-TROP2 wt).
T24 construct: scFv on the Fab heavy chain
Nature of the assay: competition ELISA, TCE on captured CD3.

The target in assay [27] is T25, TCE-1 (anti-CD3 scFv wt; anti-TROP2 Fab wt).
T25 construct: anti-CD3 scFv fused to the N-terminus of the anti-TROP2 Fab heavy chain; also called TCE-1 (wt)
Briefly: competition ELISA, TCE on captured CD3.

The target of assay [28] is T12, TCE-33 (anti-CD3 scFv F240A; anti-TROP2 …). Nature of the assay: competition ELISA, TCE on captured CD3. The source holds these as a separate data set.
The target of assay [29] is T9, TCE-10 (anti-CD3 scFv R100A; anti-TROP2 …). Nature of the assay: competition ELISA, TCE on captured CD3.
Assay [30] addresses T26, TCE-19 (anti-CD3 scFv I109A; anti-TROP2 wt).
T26 construct: scFv on the Fab heavy chain
Briefly: competition ELISA, TCE on captured CD3.

In assay [31] the target is T27, TCE-25 (anti-CD3 scFv L232A; anti-TROP2 wt).
T27 construct: scFv on the Fab heavy chain
Briefly: competition ELISA, TCE on captured CD3.

Assay [32] concerns the target T28, TCE-37 (anti-CD3 scFv F104A; anti-TROP2 F108A).
T28 construct: scFv on the Fab heavy chain
Briefly: competition ELISA, TCE on captured CD3.

The target in assay [33] is T29, TCE-7 (anti-CD3 scFv wt; anti-TROP2 F108A).
T29 construct: scFv on the Fab heavy chain
Nature of the assay: competition ELISA, TCE on captured CD3.

The target of assay [34] is B2. Briefly: competition ELISA, TCE on captured CD3.
The target of assay [35] is T30, TCE-38 (anti-CD3 scFv F240A; anti-TROP2 F108A).
T30 construct: scFv on the Fab heavy chain
Nature of the assay: competition ELISA, TCE on captured CD3.

Assay [36] addresses T31, TCE-36 (anti-CD3 scFv H101A; anti-TROP2 F108A).
T31 construct: scFv on the Fab heavy chain
Nature of the assay: competition ELISA, TCE on captured CD3.

Another assay deals with T1, Peptide-76. Briefly: ELISA, TCE on captured biotin-peptide.
For the assay “Peptide-73”, the target named is B1. Nature of the assay: ELISA, TCE on captured biotin-peptide.
The target of another assay is T2, Peptide-77. Nature of the assay: ELISA, TCE on captured biotin-peptide.
A further assay has as its target T3, Peptide-70. Nature of the assay: ELISA, TCE on captured biotin-peptide.
Assay [37] deals with T4, Human TROP2 ECD (31-274 AA), …. Nature of the assay: ELISA, captured biotin-TROP2.

Broadly, the IC50 is the concentration needed to halve the response being measured. For the molecule B1, the IC50 amounted to 200 nM in assay [1]; 2930 nM in [2]; 4070 nM in assay [3]; 2200 nM in assay [4]; 16800 nM in [5]; 25900 nM in assay [6]. Moreover, the IC50 in assay [7] is 39100 nM; in [8] it was 3020 nM; in [9] it was 3000 nM; in [10], 3000 nM; in assay [11], more than 3000 nM; in assay [12], 60 nM. For the same molecule, the IC50 in [13] worked out at 230 nM; in [14], 70 nM; in [15], 100 nM; in assay [16] it was 1220 nM; in assay [17], 230 nM; in assay [18] it was 310 nM. For the same molecule, the IC50 in [19] is 110 nM; in assay [20], 160 nM; in assay [21], 820 nM; in assay [22], 230 nM; in assay [23], 140 nM; in assay [24], 50 nM. For the same molecule, the IC50 in assay [25] is 100 nM; in assay [26], 620 nM; in assay [27], 140 nM; in assay [28] it was 1900 nM; in assay [29], more than 3000 nM; in assay [30], 420 nM. In addition, the IC50 was determined as 650 nM in assay [31]; 10 nM in [32]; 60 nM in [33]; 40 nM in assay [34]; 4620 nM in assay [35]; 1630 nM in [36].

For orientation: EC50 means the concentration giving half of the maximal effect. B2: the EC50 worked out at 1.39 nM with Peptide-76; 0.41 nM with Peptide-73; 18.8 nM with Peptide-77; 0.33 nM with Peptide-70; 5.92 nM in assay [37].
